In patent publication US20140328851A1:

Assays:
[1] = target: Low-density lipoprotein (LDL) particles (human) (UniProt P04114); test: negative-staining EM, HDL•CETP•LDL ternary complexes
[2] = target: High-density lipoprotein (HDL) particles (human) (UniProt P02647); test: cell-based or functional assay
[3] = target: Low-density lipoprotein (LDL) particles (human) (UniProt P04114); test: negative-staining EM, count of LDL•CETP complexes without antibody

percent of LDL particles connected to HDL particles by a CETP bridge [1]: 25%
decrease of mean HDL particle size after 4 hours (NS-EM), HDL/CETP/LDL co-incubation without antibody [2]: 25.8%
percentage of binary complexes (LDL•CETP) without H300 [3]: 38%
B1: Recombinant human CETP (cholesteryl ester transfer protein) (protein)
chain: CSKGTSHEAGIVCRITKPALLVLNHETAKVIQTAFQRASYPDITGEKAMMLLGQVKYGLHNIQISHLSIASSQVELVEAKSIDVSIQNVSVVFKGTLKYGYTTAWWLGIDQSIDFEIDSAIDLQINTQLTCDSGRVRTDAPDCYLSFHKLLLHLQGEREPGWIKQLFTNFISFTLKLVLKGQICKEINVISNIMADFVQTRAASILSDGDIGVDISLTGDPVITASYLESHHKGHFIYKNVSEDLPLPTFSPTLLGDSRMLYFWFSERVFHSLAKVAFQDGRLMLSLMGDEFKAVLETWGFNTNQEIFQEVVGGFPSQAQVTVHCLKMPKISCQNKGVVVNSSVMVKFLFPRPDQQHSVAYTFEEDIVTTVQASYSKKKLFLSLLDFQITPKTVSNLTESSSESVQSFLQSMITAVGIPEVMSRLEVVFTALMNSKGVSLFDIINPEIITRDGFLLLQMDFGFPEHLLVDFLQSLS
